Experimental data reported in US20100080799.

B1: recombinant WSTF 1-359 C338A point mutant (protein)
chain: MAPLLGRKPFPLVKPLPGEEPLFTIPHTQEAFRTREEYEARLERYSERIWTCKSTGSSQLTHKEAWEEEQEVAELLKEEFPAWYEKLVLEMVHHNTASLEKLVDTAWLEIMTKYAVGEECDFEVGKEKMLKVKIVKIHPLEKVDEEATEKKSDGACDSPSSDKENSSQIAQDHQKKETVVKEDEGRRESINDRARRSPRKLPTSLKKGERKWAPPKFLPHKYDVKLQNEDKIISNVPADSLIRTERPPNKEIVRYFIRHNALRAGTGENAPWVVEDELVKKYSLPSKFSDFLLDPYKYMTLNPSTKRKNTGSPDRKPSKKSKTDNSSLSSPLNPKLWAHVHLKKSLSGSPLKVKNSKNS
B2: recombinant full length human WSTF (Flag-epitope-tagged at C terminus) (protein)
chain: MAPLLGRKPFPLVKPLPGEEPLFTIPHTQEAFRTREEYEARLERYSERIWTCKSTGSSQLTHKEAWEEEQEVAELLKEEFPAWYEKLVLEMVHHNTASLEKLVDTAWLEIMTKYAVGEECDFEVGKEKMLKVKIVKIHPLEKVDEEATEKKSDGACDSPSSDKENSSQIAQDHQKKETVVKEDEGRRESINDRARRSPRKLPTSLKKGERKWAPPKFLPHKYDVKLQNEDKIISNVPADSLIRTERPPNKEIVRYFIRHNALRAGTGENAPWVVEDELVKKYSLPSKFSDFLLDPYKYMTLNPSTKRKNTGSPDRKPSKKSKTDNSSLSSPLNPKLWCHVHLKKSLSGSPLKVKNSKNSKSPEEHLEEMMKMMSPNKLHTNFHIPKKGPPAKKPGKHSDKPLKAKGRSKGILNGQKSTGNSKSPKKGLKTPKTKMKQMTLLDMAKGTQKMTRAPRNSGGTPRTSSKPHKHLPPAALHLIAYYKENKDREDKRSALSCVISKTARLLSSEDRARLPEELRSLVQKRYELLEHKKRWASMSEEQRKEYLKKKREELKKKLKEKAKERREKEMLERLEKQKRYEDQELTGKNLPAFRLVDTPEGLPNTLFGDVAMVVEFLSCYSGLLLPDAQYPITAVSLMEALSADKGGFLYLNRVLVILLQTLLQDEIAEDYGELGMKLSEIPLTLHSVSELVRLCLRRSDVQEESEGSDTDDNKDSAAFEDNEVQDEFLEKLETSEFFELTSEEKLQILTALCHRILMTYSVQDHMETRQQMSAELWKERLAVLKEENDKKRAEKQKRKEMEAKNKENGKVENGLGKTDRKKEIVKFEPQVDTEAEDMISAVKSRRLLAIQAKKEREIQEREMKVKLERQAEEERIRKHKAAAEKAFQEGIAKAKLVMRRTPIGTDRNHNRYWLFSDEVPGLFIEKGWVHDSIDYRFNHHCKDHTVSGDEDYCPRSKKANLGKNASMNTQHGTATEVAVETTTPKQGQNLWFLCDSQKELDELLNCLHPQGIRESQLKERLEKRYQDIIHSIHLARKPNLGLKSCDGNQELLNFLRSDLIEVATRLQKGGLGYVEETSEFEARVISLEKLKDFGECVIALQASVIKKFLQGFMAPKQKRRKLQSEDSAKTEEVDEEKKMVEEAKVASALEKWKTAIREAQTFSRMHVLLGMLDACIKWDMSAENARCKVCRKKGEDDKLILCDECNKAFHLFCLRPALYEVPDGEWQCPACQPATARRNSRGRNYTEESASEDSEDDESDEEEEEEEEEEEEEDYEVAGLRLRPRKTIRGKHSVIPPAARSGRRPGKKPHSTRRSQPKAPPVDDAEVDELVLQTKRSSRRQSLELQKCEEILHKIVKYRFSWPFREPVTRDEAEDYYDVITHPMDFQTVQNKCSCGSYRSVQEFLTDMKQVFTNAEVYNCRGSHVLSCMVKTEQCLVALLHKHLPGHPYVRRKRKKFPDRLAEDEGDSEPEAVGQSRGRRQKK
B3: recombinant WSTF 1-345 construct (protein)
chain: MAPLLGRKPFPLVKPLPGEEPLFTIPHTQEAFRTREEYEARLERYSERIWTCKSTGSSQLTHKEAWEEEQEVAELLKEEFPAWYEKLVLEMVHHNTASLEKLVDTAWLEIMTKYAVGEECDFEVGKEKMLKVKIVKIHPLEKVDEEATEKKSDGACDSPSSDKENSSQIAQDHQKKETVVKEDEGRRESINDRARRSPRKLPTSLKKGERKWAPPKFLPHKYDVKLQNEDKIISNVPADSLIRTERPPNKEIVRYFIRHNALRAGTGENAPWVVEDELVKKYSLPSKFSDFLLDPYKYMTLNPSTKRKNTGSPDRKPSKKSKTDNSSLSSPLNPKLWCHVHLKKS
B4: co-expressed N-motif and C-motif of the WSTF kinase domain (protein)
chain 1: MAPLLGRKPFPLVKPLPGEEPLFTIPHTQEAFRTREEYEARLERYSERIWTCKSTGSSQLTHKEAWEEEQEVAELLKEEFPAWYEKLVLEMVHHNTASLEKLVDTAWLEIMTKYAVGEECDFEVGKEKMLKVKIVKIHPLEKVDEEATEKKSDGACDSPSSDKENSSQIAQDHQKKETVVKEDEGRRESINDRARRSPRKLPTSL
chain 2: GERKWAPPKFLPHKYDVKLQNEDKIISNVPADSLIRTERPPNKEIVRYFIRHNALRAGTGENAPWVVEDELVKKYSLPSKFSDFLLDPYKYMTLNPSTKRKNTGSPDRKPSKKSKTDNSSLSSPLNPKLWCHVHLKKS
B5: recombinant WSTF 1-340 construct (protein)
chain: MAPLLGRKPFPLVKPLPGEEPLFTIPHTQEAFRTREEYEARLERYSERIWTCKSTGSSQLTHKEAWEEEQEVAELLKEEFPAWYEKLVLEMVHHNTASLEKLVDTAWLEIMTKYAVGEECDFEVGKEKMLKVKIVKIHPLEKVDEEATEKKSDGACDSPSSDKENSSQIAQDHQKKETVVKEDEGRRESINDRARRSPRKLPTSLKKGERKWAPPKFLPHKYDVKLQNEDKIISNVPADSLIRTERPPNKEIVRYFIRHNALRAGTGENAPWVVEDELVKKYSLPSKFSDFLLDPYKYMTLNPSTKRKNTGSPDRKPSKKSKTDNSSLSSPLNPKLWCHV

Columns and labels:
[1] = biological target: recombinant H2A.X (WT), N-terminal 6xHis tag
[2] = biological target: recombinant H2A.X Y142F, N-terminal 6xHis tag

Row | Protein | kinase activity (in vitro kinase assay) [1] | also measured
1 | B1 | the activity of a point mutant at C338 (C338A) was greatly diminished (<50 fold, FIG. 3F) | 
2 | B2 |  | in vitro kinase assay (32P autoradiography) [2]: WSTF phosphorylated the WT but not Y142F H2A.X; in vitro kinase assay [1]: Full length recombinant WSTF proteins isolated from insect cells phosphorylated free H2A.X protein in the presence of Mn^2+; in vitro kinase assay (32P autoradiography) [1]: The recombinant full length WSTF protein phosphorylated H2A.X-containing nucleosomes
3 | B3 | the 1-345 amino acid construct of WSTF had much more potent kinase activity (>50 fold) than the 1-340 construct | in vitro kinase assay [2]: its activity towards a Y142F mutant was much reduced
4 | B4 | The co-expressed N-motif and C-motif had significant kinase activity towards H2A.X | 
5 | B5 | the activity of the 1-340 amino acid construct was much reduced (<50 fold) in comparison to the other constructs | 
